# Tests used:
# Test in all cases: cell-based or functional assay
# [1] = target: HIV-1 Env of isolate 92UG001 (HIV-1)
# [2] = target: HIV-1 Env of isolate MGRM-C-015 (subtype C), on pseudovirus (HIV-1)
# [3] = target: HIV-1 Env of isolate MGRM-G-004 (subtype G) (HIV-1)
# [4] = target: HIV-1 Env of isolate MGRM-G-011 (subtype G) (HIV-1)
# [5] = target: HIV-1 Env of isolate MGRM-G-013 (subtype G) (HIV-1)
# [6] = target: HIV-1 Env of pseudovirus isolate JR-FL (clade B) (HIV-1)
# [7] = target: HIV-1 Env of isolate 92UG114 (pseudovirus) (HIV-1)
# [8] = target: HIV-1 Env of isolate MGRM-A-007 (subtype A) (HIV-1)
# [9] = target: HIV-1 Env of isolate MGRM-A-012 (subtype A) (HIV-1)
# [10] = target: HIV-1 Env of isolate MGRM-D-005 (pseudovirus) (HIV-1)
# [11] = target: HIV-1 Env of isolate MGRM-D-019 (pseudovirus) (HIV-1)
# [12] = target: HIV-1 Env of isolate MGRM-D-021 (pseudovirus) (HIV-1)
# [13] = target: HIV-1 Env of isolate MGRM-F1-016 (HIV-1)
# [14] = target: HIV-1 Env of isolate MGRM-F1-018 (HIV-1)
# [15] = target: HIV-1 Env of pseudovirus isolate MGRM-C-006 (clade C) (HIV-1)
# [16] = target: HIV-1 Env of pseudovirus isolate MGRM-C-009 (clade C) (HIV-1)
# [17] = target: HIV-1 JR-CSF Env I424A (HIV-1 (isolate JR-CSF)) (UniProt P20871)
# [18] = target: HIV-1 92UG024 envelope protein (Env) on pseudovirus (HIV-1)
# [19] = target: HIV-1 Env of pseudovirus MGRM-D-024 (HIV-1)
# [20] = target: HIV-1 Env of pseudovirus MGRM-F1-004 (HIV-1)
# [21] = target: HIV-1 envelope glycoprotein (Env) of isolate MG RM-AG-001 (HIV-1)
# [22] = target: HIV-1 envelope glycoprotein (Env) of isolate MG RM-AG-002 (HIV-1)
# [23] = target: HIV-1 Env of isolate MGRM-AG-001 (pseudovirus) (HIV-1)
# [24] = target: HIV-1 Env of isolate MGRM-AG-013 (pseudovirus) (HIV-1)
# [25] = target: HIV-1 94UG103 Env (HIV-1)
# [26] = target: HIV-1 Env of isolate 93RW029 (clade A pseudovirus) (HIV-1)
# [27] = target: HIV-1 Env of isolate MGRM-Chronic-B-002, clade B (HIV-1)
# [28] = target: HIV-1 Env of isolate MGRM-D-002 (clade D pseudovirus) (HIV-1)
# [29] = target: HIV-1 Env of isolate MGRM-D-004 (clade D pseudovirus) (HIV-1)
# [30] = target: HIV-1 Env of pseudovirus MGRM-F1-006 (clade F) (HIV-1)
# [31] = target: HIV-1 Env of pseudovirus MGRM-F1-022 (clade F) (HIV-1)
# HIV-1 NL43 Env (HIV-1) = target: HIV-1 NL43 Env (HIV-1)
# [32] = target: HIV-1 envelope glycoprotein (Env) of isolate MGRM-C-010 (HIV-1)
# [33] = target: HIV-1 envelope glycoprotein (Env) of isolate MGRM-C-024 (HIV-1)
# Sequence of 5329_C19 (PGT-136) (antibody) (VH): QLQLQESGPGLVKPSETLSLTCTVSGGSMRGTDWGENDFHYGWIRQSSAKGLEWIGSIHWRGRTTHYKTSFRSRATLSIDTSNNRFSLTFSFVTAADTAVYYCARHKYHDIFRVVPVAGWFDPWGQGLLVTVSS
# Sequence of 5329_C19 (PGT-136) (antibody) (VL): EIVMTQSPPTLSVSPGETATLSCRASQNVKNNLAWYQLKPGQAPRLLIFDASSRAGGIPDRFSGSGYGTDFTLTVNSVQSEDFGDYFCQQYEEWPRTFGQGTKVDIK
# Sequence of 4970_K22 (PGT-144) (antibody) (VH): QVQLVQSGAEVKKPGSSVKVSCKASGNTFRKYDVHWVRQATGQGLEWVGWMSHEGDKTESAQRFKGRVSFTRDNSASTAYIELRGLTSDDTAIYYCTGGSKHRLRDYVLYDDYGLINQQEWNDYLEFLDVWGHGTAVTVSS
# Sequence of 4970_K22 (PGT-144) (antibody) (VL): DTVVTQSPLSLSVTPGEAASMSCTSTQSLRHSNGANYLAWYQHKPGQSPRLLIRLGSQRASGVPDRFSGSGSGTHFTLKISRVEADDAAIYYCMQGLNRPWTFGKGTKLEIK
# Sequence of 4993_K13 (PGT-141) (antibody) (VH): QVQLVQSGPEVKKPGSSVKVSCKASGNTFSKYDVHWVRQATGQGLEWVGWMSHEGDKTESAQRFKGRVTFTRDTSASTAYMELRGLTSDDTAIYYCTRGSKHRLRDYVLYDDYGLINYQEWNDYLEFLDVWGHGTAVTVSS
# Sequence of 4993_K13 (PGT-141) (antibody) (VL): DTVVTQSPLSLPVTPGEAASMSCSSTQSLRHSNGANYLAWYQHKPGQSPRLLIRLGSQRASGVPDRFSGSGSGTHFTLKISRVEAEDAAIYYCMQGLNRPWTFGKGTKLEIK
# Sequence of 4995_E20 (PGT-142) (antibody) (VH): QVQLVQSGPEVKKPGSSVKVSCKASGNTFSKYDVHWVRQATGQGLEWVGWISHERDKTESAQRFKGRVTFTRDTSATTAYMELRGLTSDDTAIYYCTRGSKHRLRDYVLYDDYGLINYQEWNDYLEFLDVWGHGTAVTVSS
# Sequence of PGT-143 (4980_N08) (antibody) (VH): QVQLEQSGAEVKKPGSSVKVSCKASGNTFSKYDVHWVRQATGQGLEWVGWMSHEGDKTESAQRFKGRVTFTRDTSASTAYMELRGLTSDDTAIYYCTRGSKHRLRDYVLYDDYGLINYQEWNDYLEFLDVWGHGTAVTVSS
# Sequence of PGT-143 (4980_N08) (antibody) (VL): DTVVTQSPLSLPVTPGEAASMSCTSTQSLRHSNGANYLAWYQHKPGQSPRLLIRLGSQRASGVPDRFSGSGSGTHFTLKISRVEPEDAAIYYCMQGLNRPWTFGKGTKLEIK
substance,measurement,setting,value
4995_E20 (PGT-142) (antibody),"IC50 (µg/mL), pseudovirus neutralization",[1],> 50 µg/mL
same,"IC50, single-round pseudovirus neutralization",[2],0.038 µg/mL
same,"IC50 (µg/mL), pseudovirus neutralization",[3],> 50 µg/mL
same,"IC50 (µg/mL), pseudovirus neutralization",[4],0.046 µg/mL
same,"IC50 (µg/mL), pseudovirus neutralization",[5],> 50 µg/mL
same,"IC50, pseudovirus neutralization",[6],> 50 µg/mL
5114_A19 (PGT-128) (antibody),"IC50 (µg/mL), pseudovirus neutralization",[7],0.083 µg/mL
same,"IC50, pseudovirus neutralization",[8],> 50 µg/mL
same,"IC50, pseudovirus neutralization",[9],0.025 µg/mL
same,"IC50 (µg/mL), pseudovirus neutralization",[10],0.051 µg/mL
same,"IC50 (µg/mL), pseudovirus neutralization",[11],> 50 µg/mL
same,"IC50 (µg/mL), pseudovirus neutralization",[12],0.014 µg/mL
same,"IC50 (µg/mL), pseudovirus neutralization",[13],1.21 µg/mL
same,"IC50 (µg/mL), pseudovirus neutralization",[14],0.023 µg/mL
same,"IC50, pseudovirus neutralization",[15],0.014 µg/mL
same,"IC50, pseudovirus neutralization",[16],> 50 µg/mL
same,Fold IC50 increase relative to wild-type (pseudovirus neutralization),[17],1.3 fold
4970_K22 (PGT-144) (antibody),"IC50 (µg/mL), pseudovirus neutralization",[1],> 50 µg/mL
same,"IC50, single-round pseudovirus neutralization",[2],0.236 µg/mL
same,"IC50 (µg/mL), pseudovirus neutralization",[3],> 50 µg/mL
same,"IC50 (µg/mL), pseudovirus neutralization",[4],1.58 µg/mL
same,"IC50 (µg/mL), pseudovirus neutralization",[5],> 50 µg/mL
same,"IC50, pseudovirus neutralization",[6],> 50 µg/mL
5329_C19 (PGT-136) (antibody),"IC50 (ug/mL), pseudovirus neutralization",[18],0.0915 µg/mL
same,"IC50 (µg/mL), pseudovirus neutralization",[7],> 50 µg/mL
same,"IC50, pseudovirus neutralization",[8],> 50 µg/mL
same,"IC50, pseudovirus neutralization",[9],> 50 µg/mL
same,"IC50 (µg/mL), pseudovirus neutralization",[10],> 50 µg/mL
same,"IC50 (µg/mL), pseudovirus neutralization",[11],> 50 µg/mL
same,"IC50 (µg/mL), pseudovirus neutralization",[12],> 50 µg/mL
same,"IC50 (µg/mL), pseudovirus neutralization",[13],> 50 µg/mL
same,"IC50 (µg/mL), pseudovirus neutralization",[14],> 50 µg/mL
same,"IC50, pseudovirus neutralization",[15],> 50 µg/mL
same,"IC50, pseudovirus neutralization",[16],> 50 µg/mL
PGT-143 (4980_N08) (antibody),"IC50, pseudovirus neutralization",[19],> 50 µg/mL
same,"IC50, pseudovirus neutralization",[20],0.036 µg/mL
same,IC50,[21],18.9 µg/mL
same,IC50,[22],0.076 µg/mL
PGV04 (antibody),"IC50 (µg/mL), pseudovirus neutralization",[23],0.218 µg/mL
same,"IC50 (µg/mL), pseudovirus neutralization",[24],0.03 µg/mL
same,"IC50 (µg/mL), pseudovirus neutralization",[14],0.027 µg/mL
same,"IC50 (µg/mL), pseudovirus neutralization",[3],> 50 µg/mL
same,"IC50 (µg/mL), pseudovirus neutralization",[4],0.78 µg/mL
same,"IC50 (µg/mL), pseudovirus neutralization",[5],0.168 µg/mL
4980_N08 (PGT-143) (antibody),"IC50 (µg/mL), pseudovirus neutralization",[1],> 50 µg/mL
same,"IC50, single-round pseudovirus neutralization",[2],0.085 µg/mL
same,"IC50 (µg/mL), pseudovirus neutralization",[3],> 50 µg/mL
same,"IC50 (µg/mL), pseudovirus neutralization",[4],0.074 µg/mL
same,"IC50 (µg/mL), pseudovirus neutralization",[5],> 50 µg/mL
same,"IC50, pseudovirus neutralization",[6],> 50 µg/mL
1496_C09 (PG9) (TCN-109) (antibody),"IC50 (ug/mL), pseudovirus neutralization",[18],1.91 µg/mL
same,"IC50, pseudovirus neutralization",[25],0.31 µg/mL
same,"IC50 (µg/ml), pseudovirus neutralization",[26],1.19 µg/mL
same,"IC50 (µg/mL), pseudovirus neutralization",[23],17.1 µg/mL
same,"IC50 (µg/mL), pseudovirus neutralization",[24],0.259 µg/mL
same,"IC50 (µg/ml), pseudovirus neutralization",[27],1.41 µg/mL
same,"IC50, pseudovirus neutralization",[28],0.027 µg/mL
same,"IC50, pseudovirus neutralization",[29],0.03 µg/mL
same,"IC50 (µg/mL), pseudovirus neutralization",[14],0.019 µg/mL
same,"IC50 (µg/mL), pseudovirus neutralization",[4],0.335 µg/mL
same,IC50,[30],1.45 µg/mL
same,IC50,[31],0.06 µg/mL
same,"IC50, pseudovirus neutralization",HIV-1 NL43 Env (HIV-1),0.687 µg/mL
same,"IC50 (µg/ml), pseudovirus neutralization",[32],12.4 µg/mL
same,"IC50 (µg/ml), pseudovirus neutralization",[33],0.22 µg/mL
PGT-142 (4995_E20) (antibody),"IC50, pseudovirus neutralization",[19],> 50 µg/mL
same,"IC50, pseudovirus neutralization",[20],0.013 µg/mL
same,IC50,[21],12.4 µg/mL
same,IC50,[22],0.044 µg/mL
4993_K13 (PGT-141) (antibody),"IC50 (µg/mL), pseudovirus neutralization",[1],> 50 µg/mL
same,"IC50, single-round pseudovirus neutralization",[2],0.033 µg/mL
same,"IC50 (µg/mL), pseudovirus neutralization",[3],> 50 µg/mL
same,"IC50 (µg/mL), pseudovirus neutralization",[4],0.086 µg/mL
same,"IC50 (µg/mL), pseudovirus neutralization",[5],> 50 µg/mL
same,"IC50, pseudovirus neutralization",[6],> 50 µg/mL
